Measurements from paper PMC7988105.

How the values were obtained:
[1] = target: NRXN1β (lacking SS4) Fc fusion used as bait in the pull-down; experiment: pull-down; conditions: chain shown with the change;; parent: est. 100; read off a plot
[2] = target: PTPδA3B– extracellular domain fused to Fc (mouse); experiment: pull-down; soluble recombinant proteins mixed at 0.03 μM each in HBSS, 2 mM CaCl2, 1 mM MgCl2, 3 h, then Protein A-Sepharose 1 h, room temperature; NLGN3-His6 detected with anti-His
PTPδA3B– extracellular domain fused to Fc (mouse), sequence (Q64487 other isoform, or with tags, fused parts or gaps mutant): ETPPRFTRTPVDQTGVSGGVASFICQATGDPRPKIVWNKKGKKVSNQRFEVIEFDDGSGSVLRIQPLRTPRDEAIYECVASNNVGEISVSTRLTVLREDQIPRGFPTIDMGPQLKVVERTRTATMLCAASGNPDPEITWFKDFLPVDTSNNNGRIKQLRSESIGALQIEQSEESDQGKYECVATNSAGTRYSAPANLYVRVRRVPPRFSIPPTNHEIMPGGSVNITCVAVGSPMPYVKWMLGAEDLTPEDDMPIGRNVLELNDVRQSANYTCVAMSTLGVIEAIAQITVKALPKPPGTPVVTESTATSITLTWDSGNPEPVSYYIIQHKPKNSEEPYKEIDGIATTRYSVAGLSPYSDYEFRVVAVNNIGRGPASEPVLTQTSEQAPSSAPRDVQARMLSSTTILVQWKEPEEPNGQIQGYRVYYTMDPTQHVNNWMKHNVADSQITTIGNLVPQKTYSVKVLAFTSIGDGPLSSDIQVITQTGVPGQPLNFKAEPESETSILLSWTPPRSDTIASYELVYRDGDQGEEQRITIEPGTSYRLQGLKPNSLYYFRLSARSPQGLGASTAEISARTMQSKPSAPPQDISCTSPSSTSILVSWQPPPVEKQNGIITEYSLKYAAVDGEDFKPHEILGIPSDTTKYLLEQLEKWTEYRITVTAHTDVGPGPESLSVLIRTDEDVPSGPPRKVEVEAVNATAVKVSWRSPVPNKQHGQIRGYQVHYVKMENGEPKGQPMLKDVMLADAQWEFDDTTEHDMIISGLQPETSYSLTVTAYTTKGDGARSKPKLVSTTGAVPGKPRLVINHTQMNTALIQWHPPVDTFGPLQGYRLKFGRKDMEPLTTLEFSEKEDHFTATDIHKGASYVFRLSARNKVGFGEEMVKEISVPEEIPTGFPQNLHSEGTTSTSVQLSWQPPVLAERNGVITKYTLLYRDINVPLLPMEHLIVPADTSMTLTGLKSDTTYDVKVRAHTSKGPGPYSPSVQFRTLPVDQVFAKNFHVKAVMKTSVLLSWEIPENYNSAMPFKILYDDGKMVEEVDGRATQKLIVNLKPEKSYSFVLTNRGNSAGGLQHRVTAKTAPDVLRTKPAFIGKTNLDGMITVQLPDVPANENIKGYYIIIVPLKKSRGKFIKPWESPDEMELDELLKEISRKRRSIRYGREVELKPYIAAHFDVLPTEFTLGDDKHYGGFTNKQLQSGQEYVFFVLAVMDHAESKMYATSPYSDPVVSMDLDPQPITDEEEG

NRXN1β (lacking SS4) Fc fusion used as bait in the pull-down, sequence (chain, as listed by the source): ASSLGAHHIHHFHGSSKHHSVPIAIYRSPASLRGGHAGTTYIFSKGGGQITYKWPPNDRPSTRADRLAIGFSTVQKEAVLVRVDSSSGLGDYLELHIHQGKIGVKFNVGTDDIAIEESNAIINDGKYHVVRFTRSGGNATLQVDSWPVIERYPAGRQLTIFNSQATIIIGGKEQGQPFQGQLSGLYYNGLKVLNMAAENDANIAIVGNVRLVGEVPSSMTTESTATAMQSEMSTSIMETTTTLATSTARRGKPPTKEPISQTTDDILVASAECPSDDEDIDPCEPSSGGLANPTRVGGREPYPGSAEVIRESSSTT

Binder	percent of parent [1]	pulldown efficiency (% of wild-type) (% of wild-type) [2]
mouse NLGN3 ECD (residues 35–684) with C-terminal His6 tag, Q8BYM5 H279A; S280A; E281A (protein) QAPAPTVNTHFGKLRGARVPLPSEILGPVDQYLGVPYAAPPIGEKRFLPPEPPPSWSGIRNATHFPPVCPQNIHTAVPEVMLPVWFTANLDIVATYIQEPNEDCLYLNVYVPTEDGSGAKKQGEDLADNDGDEDEDIRDSGAKPVMVYIHGGSYMEGTGNMIDGSVLASYGNVIVITLNYRVGVLGFLSTGDQAAKGNYGLLDQIQALRWVSENIAFFGGDPRRITVFGSGIGASCVSLLTLSHAAAGLFQRAIIQSGSALSSWAVNYQPVKYTSLLADKVGCNVLDTVDMVDCLRQKSAKELVEQDIQPARYHVAFGPVIDGDVIPDDPEILMEQGEFLNYDIMLGVNQGEGLKFVEGVVDPEDGVSGTDFDYSVSNFVDNLYGYPEGKDTLRETIKFMYTDWADRDNPETRRKTLVALFTDHQWVEPSVVTADLHARYGSPTYFYAFYHHCQSLMKPAWSDAAHGDEVPYVFGVPMVGPTDLFPCNFSKNDVMLSAVVMTYWTNFAKTGDPNKPVPQDTKFIHTKANRFEEVAWSKYNPRDQLYLHIGLKPRVRDHYRATKVAFWKHLVPHLYNLHDMFHYTSTTTKVPPPDTTHSSHITRRPNGKTWSTKRPAISPAYSNENAPGSWNGDQDAGPLLVENPRDYSTE	22 % WT	–
mouse NLGN3 ECD (residues 35–684) with C-terminal His6 tag, Q8BYM5 D362A; E372A; N375A (protein) QAPAPTVNTHFGKLRGARVPLPSEILGPVDQYLGVPYAAPPIGEKRFLPPEPPPSWSGIRNATHFPPVCPQNIHTAVPEVMLPVWFTANLDIVATYIQEPNEDCLYLNVYVPTEDGSGAKKQGEDLADNDGDEDEDIRDSGAKPVMVYIHGGSYMEGTGNMIDGSVLASYGNVIVITLNYRVGVLGFLSTGDQAAKGNYGLLDQIQALRWVSENIAFFGGDPRRITVFGSGIGASCVSLLTLSHHSEGLFQRAIIQSGSALSSWAVNYQPVKYTSLLADKVGCNVLDTVDMVDCLRQKSAKELVEQDIQPARYHVAFGPVIDGDVIPADPEILMEQGAFLAYDIMLGVNQGEGLKFVEGVVDPEDGVSGTDFDYSVSNFVDNLYGYPEGKDTLRETIKFMYTDWADRDNPETRRKTLVALFTDHQWVEPSVVTADLHARYGSPTYFYAFYHHCQSLMKPAWSDAAHGDEVPYVFGVPMVGPTDLFPCNFSKNDVMLSAVVMTYWTNFAKTGDPNKPVPQDTKFIHTKANRFEEVAWSKYNPRDQLYLHIGLKPRVRDHYRATKVAFWKHLVPHLYNLHDMFHYTSTTTKVPPPDTTHSSHITRRPNGKTWSTKRPAISPAYSNENAPGSWNGDQDAGPLLVENPRDYSTE	18 % WT	–
NLGN3 ECD R448C mutant (R/C; equivalent to human R451C) with His6 tag, Q8BYM5 35-684 (domain or fragment) QAPAPTVNTHFGKLRGARVPLPSEILGPVDQYLGVPYAAPPIGEKRFLPPEPPPSWSGIRNATHFPPVCPQNIHTAVPEVMLPVWFTANLDIVATYIQEPNEDCLYLNVYVPTEDGSGAKKQGEDLADNDGDEDEDIRDSGAKPVMVYIHGGSYMEGTGNMIDGSVLASYGNVIVITLNYRVGVLGFLSTGDQAAKGNYGLLDQIQALRWVSENIAFFGGDPRRITVFGSGIGASCVSLLTLSHHSEGLFQRAIIQSGSALSSWAVNYQPVKYTSLLADKVGCNVLDTVDMVDCLRQKSAKELVEQDIQPARYHVAFGPVIDGDVIPDDPEILMEQGEFLNYDIMLGVNQGEGLKFVEGVVDPEDGVSGTDFDYSVSNFVDNLYGYPEGKDTLRETIKFMYTDWADRDNPETRCKTLVALFTDHQWVEPSVVTADLHARYGSPTYFYAFYHHCQSLMKPAWSDAAHGDEVPYVFGVPMVGPTDLFPCNFSKNDVMLSAVVMTYWTNFAKTGDPNKPVPQDTKFIHTKANRFEEVAWSKYNPRDQLYLHIGLKPRVRDHYRATKVAFWKHLVPHLYNLHDMFHYTSTTTKVPPPDTTHSSHITRRPNGKTWSTKRPAISPAYSNENAPGSWNGDQDAGPLLVENPRDYSTE	–	20

Further lines, results first:

percent of parent [1]	pulldown efficiency (% of wild-type) (% of wild-type) [2]	Binder
115 % WT	–	mouse NLGN3 ECD (residues 35–684) with C-terminal His6 tag, Q8BYM5 M614I; F615S (protein) QAPAPTVNTHFGKLRGARVPLPSEILGPVDQYLGVPYAAPPIGEKRFLPPEPPPSWSGIRNATHFPPVCPQNIHTAVPEVMLPVWFTANLDIVATYIQEPNEDCLYLNVYVPTEDGSGAKKQGEDLADNDGDEDEDIRDSGAKPVMVYIHGGSYMEGTGNMIDGSVLASYGNVIVITLNYRVGVLGFLSTGDQAAKGNYGLLDQIQALRWVSENIAFFGGDPRRITVFGSGIGASCVSLLTLSHHSEGLFQRAIIQSGSALSSWAVNYQPVKYTSLLADKVGCNVLDTVDMVDCLRQKSAKELVEQDIQPARYHVAFGPVIDGDVIPDDPEILMEQGEFLNYDIMLGVNQGEGLKFVEGVVDPEDGVSGTDFDYSVSNFVDNLYGYPEGKDTLRETIKFMYTDWADRDNPETRRKTLVALFTDHQWVEPSVVTADLHARYGSPTYFYAFYHHCQSLMKPAWSDAAHGDEVPYVFGVPMVGPTDLFPCNFSKNDVMLSAVVMTYWTNFAKTGDPNKPVPQDTKFIHTKANRFEEVAWSKYNPRDQLYLHIGLKPRVRDHYRATKVAFWKHLVPHLYNLHDISHYTSTTTKVPPPDTTHSSHITRRPNGKTWSTKRPAISPAYSNENAPGSWNGDQDAGPLLVENPRDYSTE
104 % WT	–	mouse NLGN3 ECD (residues 35–684) with C-terminal His6 tag, Q8BYM5 M614A; F615A (protein) QAPAPTVNTHFGKLRGARVPLPSEILGPVDQYLGVPYAAPPIGEKRFLPPEPPPSWSGIRNATHFPPVCPQNIHTAVPEVMLPVWFTANLDIVATYIQEPNEDCLYLNVYVPTEDGSGAKKQGEDLADNDGDEDEDIRDSGAKPVMVYIHGGSYMEGTGNMIDGSVLASYGNVIVITLNYRVGVLGFLSTGDQAAKGNYGLLDQIQALRWVSENIAFFGGDPRRITVFGSGIGASCVSLLTLSHHSEGLFQRAIIQSGSALSSWAVNYQPVKYTSLLADKVGCNVLDTVDMVDCLRQKSAKELVEQDIQPARYHVAFGPVIDGDVIPDDPEILMEQGEFLNYDIMLGVNQGEGLKFVEGVVDPEDGVSGTDFDYSVSNFVDNLYGYPEGKDTLRETIKFMYTDWADRDNPETRRKTLVALFTDHQWVEPSVVTADLHARYGSPTYFYAFYHHCQSLMKPAWSDAAHGDEVPYVFGVPMVGPTDLFPCNFSKNDVMLSAVVMTYWTNFAKTGDPNKPVPQDTKFIHTKANRFEEVAWSKYNPRDQLYLHIGLKPRVRDHYRATKVAFWKHLVPHLYNLHDAAHYTSTTTKVPPPDTTHSSHITRRPNGKTWSTKRPAISPAYSNENAPGSWNGDQDAGPLLVENPRDYSTE
